Experimental data as given in patent US6730503B1 (Roche Vitamins Inc., priority 1996, dated 2004).

What was measured:
[1] = Thermal stability, 5 minutes, residual activity by PMS-DCIP assay; assay type: physicochemical
Method: Table 4 indicates the results of thermal-stabilities of the enzymes. The enzyme (about 0.05 mg/ml) in 25 mM HEPES buffer, pH 7.5, containing 5% sucrose, 0.2 M NaCl, and 5 mM CaCl2 was incubated at temperature indicated in the table (4-60° C.) for 5 minutes, cooled in ice bath and assayed by PMS-DCIP spectrophotometric method. Remaining activity was expressed as relative activity against that obtained by 4° C. incubation.

[2] = pH stability, 3 hours at 25° C., residual activity by PMS-DCIP assay; assay type: physicochemical; settings: relative to no incubation at pH 8.0
Method: Enzymes A, A′, A″ and B were incubated in buffers of various pH-values for 3 hours at 25° C. and the residual activities were assayed and expressed as relative values against that obtained by no incubation at pH 8.
Table 3 indicates the results of pH-stabilities of the enzymes. The enzyme (about 0.01 mg/ml) was incubated with 50 mM buffer containing 5% sucrose, 0.2 M NaCl, and 5 mM CaCl2 at 25° C. for 3 hours and assayed by PMS-DCIP spectrophotometric method. The buffers were Na-acetate, pH4 and 5, Tris-malate-NaOH, pH 6, 7 and 8, glycine-NaOH, pH 9 and 10. The values in the table are expressed as relative activity against that obtained by no incubation at pH 8.0.

[3] = Oxidation product of AADH clones by resting cell reaction followed by TLC analysis; assay type: cell-based, P. putida
Text: Enzyme A gene was originally cloned as a cosmid clone of p24D4 which has about 25 kb insert in EcoRI site of pVK100. Then, it was further subcloned to use as an Enzyme A gene cassette. The 2.7 kb EcoRV fragment which includes ORF of Enzyme A gene with about 500 bp of non-coding regions at the both ends was excised from 3.4 kb NruI fragment, which was isolated from p24D4 in M13 mp18, and was ligated to HindIII site of pUC18 with HindIII linker ([…]). The resulting plasmid was designated pSSA202. Enzyme A gene cassette (2.7 kb HindIII fragment) was then inserted at HindIII site of pVK102 to produce pSSA102R. The plasmid pSSA102R was introduced into nalidixic acid resistant P. putida [ATCC 21812] by a conjugal mating method as described in Example 1-(1). The transconjugant of P. putida carrying pSSA102R was selected on MB agar medium containing 50 μg/ml nalidixic acid and 10 μg/ml tetracycline (MNT agar medium) and subjected to a mini-resting cell reaction. […] The reaction mixture was assayed with TLC and 2KGA was identified as the product, while no 2KGA was observed by the same resting cell reaction with the host, nalidixic acid resistant P. putida [ATCC 21812].

[4] = Products of enzyme reactions with purified enzymes, identified by TLC and/or HPLC; assay type: biochemical
Method: Products formed from a substrate in the reaction with Enzyme A, Enzyme A′, Enzyme A″ or Enzyme B were analyzed by thin layer chromatography (TLC) and/or high performance liquid chromatography (HPLC) with authentic compounds. […] Similarly to the reactivity for L-sorbosone, D-glucosone can be converted to 2KD by all of above mentioned AADHs. A group enzymes can produce 2KD from D-fructose whose possible direct product is D-glucosone. […]
Enzyme reactions with purified Enzyme A or Enzyme B and various substrates were performed as described in Example 11.

[5] = Substrate specificity of purified enzymes, PMS-DCIP spectrophotometric assay; assay type: biochemical; settings: A′ corrected 1.5-fold (purity about 65%)
Method: The enzymatic activity of the AADHs herein can be determined by methods known in the art, such as by photometric analysis using a spectrophotometer. In accordance with the present invention, one unit of enzyme activity was defined as the amount of enzyme which catalyzed the reduction of 1 μmole of DCIP per minute. The extinction coefficient of DCIP at pH 8.0 was taken as 15 mM^−1. In a preferred standard assay for determining the enzyme activity of the AADHs herein, a first cuvette includes a standard reaction mixture (1.0 ml) containing 0.1 mM DCIP, 1 mM PMS, 2 to 125 mM substrate, 50 mM Tris-malate-NaOH buffer (pH 8.0), and 10 μl of the enzyme solution. A second cuvette, i.e., a reference cuvette, contains all the above components except the substrate. The reference cuvette is used to standardize the background absorbance resulting from a substrate-independent (endogenous) reaction. Preferably, a double beam spectrophotometer is used to determine the activity of the enzyme in the presence of a substrate with respect to a standard reaction mixture in the absence of the substrate.
Enzyme activities of each clone (cell free extract, soluble fraction and membrane fraction) were measured by photometric analysis. The cells of each clone were inoculated in 5 ml of MB medium in a test tube and cultivated at 30° C. for 24 hours. The resulting broth was transferred into 200 ml of fresh MB medium in 500 ml flask and the flask was shaken on the rotary flask shaker at 30° C. for 24 hours. The cells were collected by centrifugation at 6,000×g for 10 minutes and washed with 40 ml of cold buffer consisting of 50 mM Tris-HCl, pH 7.5, 5 mM MgCl2 and 0.5 mM phenylmethylsulfonyl fluoride and suspended with the same buffer to prepare cell suspension of 1 g wet cells per 5 ml. The cell suspension was subjected twice to a French press cell disruptor (1,500 kg/cm^2) and the resulting homogenate was centrifuged at 6,000×g for 10 minutes to remove cell debris. Thus obtained cell free extract (CFE) was centrifuged at 100,000×g for 60 minutes. The resulting supernatant and pellet were collected as the cytosol fraction and the membrane fraction, respectively and subjected to PMS-DCIP assay as follows. The enzyme reaction mixture (1.0 ml) contained 100 μM DCIP, 1 mM PMS, 50 mM Tris malate-NaOH buffer, pH 8.0, a substrate and the enzyme (10 μl). Substrate-dependent decreasing rate of absorbance of DCIP at 600 nm was measured at 25° C. by using a Kontron spectrophotometer UVIKON 810. […] In the A-group, there were three types, A, A′ and A″ each of which was distinguished from each other by their physical map of the DNA carried on each plasmid. B- or C-group each consisted of only one type of protein derived from one region of the chromosomal DNA.

B1: Enzyme A′: recombinant AADH of G. oxydans DSM No. 4025, amino acid sequence SEQ ID NO 6, plasmid p1E2 (protein)
chain: MKTSSLLVASVAALASYSSFALAQVTPVTDELLANPPAGEWISYGQNQENYRHSPLTQITTENVGQLQLVWARGMQPGKVQVTPLIHDGVMYLANPGDVIQAIDAKTGDLIWEHRRQLPNIATLNSFGEPTRGMALYGTNVYFVSWDNHLVALDTATGQVTFDVDRGQGEDMVSNSSGPIVANGVIVAGSTCQYSPFGCFVSGHDSATGEELWRNYFIPRAGEEGDETWGNDYEARWMTGVWGQITYDPVGGLVHYGSSAVGPASETQRGTTGGTMYGTNTRFAVRPETGEIVWRHQTLPRDNWDQECTFEMMVANVDVQPAADMDGVRSINPNAATGERRVLTGVPCKTGTMWQFDAETGEFLWARDTSYENIIESIDENGIVTVDESKVLTELDTPYDVCPLLLGGRDWPSAALNPDTGIYFIPLNNTCMDIEAVDQEFSSLDVYNQSLTAKMAPGKELVGRIDAIDISTGRTLWTAEREASNYAPVLSTAGGVLFNGGTDRYFRALSQETGETLWQTRLATVASGQAVSYEIDGVQYIAIGGGGTTYGSFHNRPLAEPVDSTAIGNAMYVFALPQQ
modifications: Gluconobacter oxydans; SIGNAL (1)..(23)
[1]; 4° C. for 5 minutes (reference)
  Relative activity (thermal stability): 100.0%
[1]; 20° C. for 5 minutes, relative to 4° C. incubation
  Relative activity (thermal stability): 100.8%
[1]; 30° C. for 5 minutes, relative to 4° C. incubation
  Relative activity (thermal stability): 103.6%
[1]; 40° C. for 5 minutes, relative to 4° C. incubation
  Relative activity (thermal stability): 78.9%
[1]; 50° C. for 5 minutes, relative to 4° C. incubation
  Relative activity (thermal stability): 0.6%
[1]; 60° C. for 5 minutes, relative to 4° C. incubation
  Relative activity (thermal stability): 0.0%
[2]; incubated at pH 4.0, 3 hours
  Relative activity (pH stability): 0.0%
[2]; incubated at pH 5.0, 3 hours
  Relative activity (pH stability): 10.0%
[2]; incubated at pH 6.0, 3 hours
  Relative activity (pH stability): 82.7%
[2]; incubated at pH 7.0, 3 hours
  Relative activity (pH stability): 96.9%
[2]; incubated at pH 8.0, 3 hours
  Relative activity (pH stability): 100.0%
[2]; incubated at pH 9.0, 3 hours
  Relative activity (pH stability): 97.3%
[2]; incubated at pH 10.0, 3 hours
  Relative activity (pH stability): 85.4%
[2]; incubated at pH 11.0, 3 hours
  Relative activity (pH stability): 61.3%
[3]
  Oxidation product of D-sorbitol: mainly D-glucose
  Oxidation product of L-sorbose: *1Oxidation product of L-sorbose by Enzymes A, A′, A″, and [A and B] was 2KGA.
  Oxidation product of L-sorbosone: *4Oxidation product of L-sorbosone by Enzymes A, A′, A″, B, and [A and B] was 2KGA.
[4]; substrate D-Fructose
  Product: 2-keto-D-gluconic acid
[4]; substrate D-Mannitol
  Product: D-mannose
[4]; substrate D-Sorbitol
  Product: D-glucose with L-gulose
[4]; substrate L-Sorbose
  Product: L-sorbosone with 2KGA
[4]; substrate L-Sorbosone
  Product: 2KGA
[5]; 2 mM L-Sorbosone
  Substrate specificity: 5.0 units/mg of purified protein
[5]; 50 mM D-Glucose
  Substrate specificity: 0.0 units/mg of purified protein
[5]; 50 mM D-Mannitol
  Substrate specificity: 1.3 units/mg of purified protein
[5]; 50 mM Isopropanol
  Substrate specificity: 108.9 units/mg of purified protein
[5]; 50 mM n-Propanol
  Substrate specificity: 180.7 units/mg of purified protein
[5]; 125 mM D-Fructose
  Substrate specificity: 2.9 units/mg of purified protein
[5]; 125 mM D-Sorbitol
  Substrate specificity: 7.8 units/mg of purified protein
[5]; 125 mM L-Sorbose
  Substrate specificity: 1.6 units/mg of purified protein
